Measured values from patent US20230406948A1.

Assays:
[1] = target: human CD40 on cells (native CD40 on Ramos cells, human B cells, human monocyte-derived dendritic cells; cell surface CD40) (human) (UniProt P25942); test: cell-based or functional assay
[2] = target: human CD40 on cells (native CD40 on Ramos cells, human B cells, human monocyte-derived dendritic cells; cell surface CD40) (human) (UniProt P25942); test: FACS on live Ramos cells, goat anti-human IgG (H+L) PE

Sequence of human CD40 on cells (native CD40 on Ramos cells, human B cells, human monocyte-derived dendritic cells; cell surface CD40) (human) (P25942 21-193): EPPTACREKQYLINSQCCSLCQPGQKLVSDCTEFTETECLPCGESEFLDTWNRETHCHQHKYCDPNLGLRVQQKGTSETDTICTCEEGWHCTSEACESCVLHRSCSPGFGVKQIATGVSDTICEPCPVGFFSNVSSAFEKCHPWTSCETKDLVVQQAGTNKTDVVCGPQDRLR

EC50 (ng/ml), CD40 agonist activity: up-regulation of CD86 on human B cells [1]: 1260 ng/mL
EC50 [2]: 0.0218 µg/mL
Substance: SGN-40 (antibody)
